The target in assay [1] is T1, human Tim-3-Fc (R&D Systems) (human, UniProt Q8TDQ0 22-130).
T1 construct: Bought reagent; Biotinylated in the phosphatidylserine assay, ruthenylated (sulfo-tag) in the galectin-9 assay, plain and plate-coated in the ELISA and the CEACAM1 assay; also called hTIM-3-Fc; hTIM-3-Fc Biotin; not shown: Fc part of the bought fusion protein
T1 sequence: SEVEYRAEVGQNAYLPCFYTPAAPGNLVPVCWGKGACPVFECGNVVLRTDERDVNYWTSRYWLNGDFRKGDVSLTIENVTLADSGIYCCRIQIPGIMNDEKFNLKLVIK
Nature of the assay: ELISA, plate-coated human Tim-3-Fc.

Assay [2] deals with T2, human Tim-3, full-length, on cells (human, UniProt Q8TDQ0 22-301).
T2 construct: whole, on cells; also called cell surface Tim-3
T2 sequence (looked up): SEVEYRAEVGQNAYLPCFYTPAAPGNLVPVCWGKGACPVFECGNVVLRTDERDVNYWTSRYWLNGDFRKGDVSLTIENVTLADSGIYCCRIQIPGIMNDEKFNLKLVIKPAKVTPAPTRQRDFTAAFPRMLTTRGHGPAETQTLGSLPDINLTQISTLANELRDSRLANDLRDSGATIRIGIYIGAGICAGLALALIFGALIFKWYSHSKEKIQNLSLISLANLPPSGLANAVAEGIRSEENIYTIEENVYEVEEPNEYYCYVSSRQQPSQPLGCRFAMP
Briefly: flow cytometry, A488-labelled antibody on Tim-3 DO11.10 cells.

Assay [3] deals with T1, human Tim-3-Fc (R&D Systems). Nature of the assay: MSD blocking assay, galectin-9-biotin on streptavidin plate as competitor, ruthenylated Tim-3-Fc.
For assay [4] the target is unchanged. Nature of the assay: flow cytometry, block of hTIM-3-Fc Biotin binding to phosphatidylserine on camptothecin-treated DO11.10 cells.
The target in assay [5] is T3, human Tim-3-IgV-Fc single arm antigen (SAG) (human).
T3 construct: the SAG construct itself is not described further; also called Tim-3 SAG; not shown: Fc part of the antigen arm, any linker to it, and the second antigen-free Fc arm
Nature of the assay: SPR, Biacore T100, antibody captured on Human Fab Binder, Tim-3 SAG as analyte, 1:1 Langmuir with mass transport.

The target of another assay is T4, hTim-3-IgV-FLAG (human, UniProt Q8TDQ0 22-130, glycosylation at Asn99 (density seen in the crystal structure)).
T4 construct: Purified from 293HEK supernatant on anti-FLAG resin; also called hTim-3-FLAG; not shown: FLAG tag
T4 sequence: T1 sequence
Briefly: SPR, Biacore T200, Fab captured, hTim-3-IgV-FLAG as analyte, 25 C, 1:1 binding.

Assay [6] deals with T5, human PD-L1-Fc fusion protein (human, UniProt Q9NZQ7 19-239).
T5 construct: also called human PD-L1-Fc (R&D Systems); biotinylated PD-L1-Fc fusion protein; not shown: Fc part
T5 sequence (Q9NZQ7 19-239 limits assumed): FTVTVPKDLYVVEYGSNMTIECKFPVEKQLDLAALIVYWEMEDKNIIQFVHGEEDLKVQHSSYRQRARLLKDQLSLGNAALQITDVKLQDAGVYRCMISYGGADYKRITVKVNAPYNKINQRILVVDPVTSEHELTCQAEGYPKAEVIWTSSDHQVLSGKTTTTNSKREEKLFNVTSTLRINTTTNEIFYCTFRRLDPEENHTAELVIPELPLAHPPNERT
Briefly: ELISA, plate-coated human PD-L1-Fc.

Assay [7] addresses T5, human PD-L1-Fc fusion protein. Nature of the assay: blocking ELISA, B7-1-Fc on plate as competitor, biotinylated PD-L1-Fc.
Assay [8] shares this target. Nature of the assay: blocking ELISA, PD-1-Fc on plate as competitor, biotinylated PD-L1-Fc.
Assay [9] has as its target T6, cell surface PD-L1 on MDA-MB231 cells (human, UniProt Q9NZQ7 19-290).
T6 construct: Endogenous PD-L1 of a PD-L1-positive human breast adenocarcinoma cell line; also called cell surface expressed human PD-L1
Nature of the assay: flow cytometry, Antibody B-biotin on MDA-MB231 cells, streptavidin-PE.

For assay [10], the target named is T5, human PD-L1-Fc fusion protein. Briefly: SPR, Biacore, Antibody B immobilized, PD-L1-Fc as analyte, 37 C, 1:1 model.
In assay [11] the target is T7, cynomolgus monkey PD-L1-Fc fusion protein (cynomolgus monkey, UniProt G7PSE7 19-238).
T7 construct: also called Cyno PD-L1; not shown: Fc part
T7 sequence (G7PSE7 entry or part of it): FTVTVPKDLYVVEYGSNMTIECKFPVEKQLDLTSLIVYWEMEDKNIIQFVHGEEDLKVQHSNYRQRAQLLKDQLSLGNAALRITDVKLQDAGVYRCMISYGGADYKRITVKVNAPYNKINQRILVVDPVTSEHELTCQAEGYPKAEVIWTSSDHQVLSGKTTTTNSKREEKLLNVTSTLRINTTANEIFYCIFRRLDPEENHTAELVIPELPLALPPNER
Nature of the assay: SPR, Biacore, Antibody B immobilized, cyno PD-L1-Fc as analyte, 37 C, 1:1 model.

T6 sequence (Q9NZQ7 19-290 limits assumed): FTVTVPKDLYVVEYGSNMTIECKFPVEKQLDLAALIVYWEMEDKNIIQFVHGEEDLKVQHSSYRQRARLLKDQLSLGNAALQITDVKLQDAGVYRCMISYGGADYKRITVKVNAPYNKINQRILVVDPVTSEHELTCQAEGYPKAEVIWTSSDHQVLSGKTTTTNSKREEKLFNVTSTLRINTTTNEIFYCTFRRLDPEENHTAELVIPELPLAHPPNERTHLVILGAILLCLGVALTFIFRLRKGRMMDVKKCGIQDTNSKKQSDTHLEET

B1: Antibody A (anti-Tim-3 Antibody) (antibody, human IgG1, kappa, V domains shown)
VH: EVQLLESGGGLVQPGGSLRLSCAASGFTFSSYYMSWVRQAPGKGLEWVSAISGSGGSTYYADSVKGRFTISRDNSKNTLYLQMNSLRAEDTAVYYCARYARTAFDLWGQGTLVTVSS
VL: DIVMTQSPSSLSASVGDGVTITCQASQDIYNYLNWYQQKPGKAPKLLIYAASSLQSGVPSRFSGSGSGTDFTLTISSLQPEDFATYYCQQANSFPPTFGQGTKLEIKR
notes: Full IgG; also called anti-human Tim-3 antibody
B1: a half-maximal response in assay [1] (EC50) required 0.0207 nM. In assay [2], this molecule displayed an EC50 of 0.09 nM. The IC50 in assay [3] worked out at 5.6 nM. In assay [4], the IC50 worked out at 0.32 nM. In assay [5], binding was put at a Kd of 0.398 nM, the koff came to 0.000927 s⁻¹ and the kon worked out at 2.33e+06 M⁻¹ s⁻¹.

B2: Antibody A-Fab (Fab, V domains shown)
VH: B1 VH
VL: B1 VL
notes: Made by clipping Antibody A with immobilized papain; also called Fab for Antibody A
In the assay with hTim-3-IgV-FLAG, B2 had a Kd of 7.92 nM, a koff of 0.00286 s⁻¹ and a kon of 362000 M⁻¹ s⁻¹.

B3: Antibody B (Anti-PD-L1 Antibody) (antibody, human IgG1, lambda, V domains shown)
VH: QVQLVQSGAEVKKPGSSVKVSCKASGGTFSSYAISWVRQAPGQGLEWMGGIIPIFGTANYAQKFQGRVTITADKSTSTAYMELSSLRSEDTAVYYCARSPDYSPYYYYGMDVWGQGTTVTVSS
VL: QSVLTQPPSASGTPGQRVTISCSGSSSNIGSNTVNWYQQLPGTAPKLLIYGNSNRPSGVPDRFSGSKSGTSASLAISGLQSEDEADYYCQSYDSSLSGSVFGGGIKLTVLG
notes: Full IgG; also called Lilly PD-L1 antibody Antibody B; Antibody B-biotin
For B3, the EC50 was 0.11 nM in assay [6] and 0.14 nM in assay [9]. Moreover, the IC50 in assay [7] is 2.4 nM; in [8], 0.95 nM. The Kd in assay [10] came out at 0.082 nM; in assay [11] it was 0.122 nM. Moreover, the koff in assay [10] is 0.000114 s⁻¹; in assay [11] it was 0.000184 s⁻¹. Moreover, the kon turned out to be 1.4e+06 M⁻¹ s⁻¹ in [10] and 1.51e+06 M⁻¹ s⁻¹ in assay [11].

Source of the values: US20200024352A1 (Eli Lilly, published 2020).
